We go through 1 molecule from publication PMC7096399, “The Na,K-ATPase acts upstream of phosphoinositide PI(4,5)P2 facilitating unconventional secretion of Fibroblast Growth Factor 2” (Communications Biology, 2020).

For this test, the target named is T1, ∆N25-FGF2, non-tagged form of FGF2 lacking 25 residues at the N-terminus (UniProt P09038-2 26-155).
T1 construct: FGF2, 18 kDa isoform (UniProtKB P09038-2), lacking 25 residues at the N-terminus; Untagged; also called untagged version of FGF2; source: E. coli, purified according to standard procedures
The test can be described thus: AlphaScreen or HTRF; competition: His-FGF2-wt (62 nM) and GST-α1 variant (15 nM) with ∆N25-FGF2 competitor from 22.5 µM to 1.4 nM; apparent IC50 taken as the apparent KD. The following applies: both partners purified. (In general: Alpha assays give light when donor and acceptor beads are brought close together.)

T1 sequence (P09038 159-288): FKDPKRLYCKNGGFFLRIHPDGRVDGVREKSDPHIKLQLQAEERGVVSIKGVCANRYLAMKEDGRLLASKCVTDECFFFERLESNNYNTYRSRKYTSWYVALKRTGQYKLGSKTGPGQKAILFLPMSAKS

B1: GST-α1-CD1-3, fusion of the three main loops of the cytoplasmic domain of the α1 subunit of the Na,K-ATPase (domain or fragment)
chain: not shown
On to B1, for which the Kd is 1100 nM.
